Laboratory results published in publication doi:10.1101/067827 (bioRxiv, 2016).

Target: the molecule itself
Assay: SEC

B1: MCAK-His6 (purified full-length MCAK) (enzyme, UniProt Q99661 1-725, looked up)
chain: MAMDSSLQARLFPGLAIKIQRSNGLIHSANVRTVNLEKSCVSVEWAEGGATKGKEIDFDDVAAINPELLQLLPLHPKDNLPLQENVTIQKQKRRSVNSKIPAPKESLRSRSTRMSTVSELRITAQENDMEVELPAAANSRKQFSVPPAPTRPSCPAVAEIPLRMVSEEMEEQVHSIRGSSSANPVNSVRRKSCLVKEVEKMKNKREEKKAQNSEMRMKRAQEYDSSFPNWEFARMIKEFRATLECHPLTMTDPIEEHRICVCVRKRPLNKQELAKKEIDVISIPSKCLLLVHEPKLKVDLTKYLENQAFCFDFAFDETASNEVVYRFTARPLVQTIFEGGKATCFAYGQTGSGKTHTMGGDLSGKAQNASKGIYAMASRDVFLLKNQPCYRKLGLEVYVTFFEIYNGKLFDLLNKKAKLRVLEDGKQQVQVVGLQEHLVNSADDVIKMIDMGSACRTSGQTFANSNSSRSHACFQIILRAKGRMHGKFSLVDLAGNERGADTSSADRQTRMEGAEINKSLLALKECIRALGQNKAHTPFRESKLTQVLRDSFIGENSRTCMIATISPGISSCEYTLNTLRYADRVKELSPHSGPSGEQLIQMETEEMEACSNGALIPGNLSKEEEELSSQMSSFNEAMTQIRELEEKAMEELKEIIQQGPDWLELSEMTEQPDYDLETFVNKAESALAQQAKHFSALRDVIKALRLAMQLEEQASRQISSKKRPQ
- stoichiometry N: 2
